Source: the supplement of paper PMC10567573

B1: DLC1 (parent)
chain: HVTHWMGQPFNSDDRNTACHHGLV
B2: ALDH8A1 (parent)
chain: RVAKKLQSGLVWTNCWLIRELNLP
B3: TMEM120A (parent)
chain: YQSFVQFLQYYYQSGCLYRLRALG

Variants of: B1
Assay: protein stability index of a GFP-peptide fusion (GPS, HEK-293T) (PSI 1-6); higher = more stable
Conditions: c terminus: a fixed tail appended
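Also: lentivirally expressed fusions sorted by FACS into six bins by GFP to DsRed ratio, PSI derived from sequencing read proportions per bin multiplied by bin number.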

Protein stability index of substitutions, site by site:
W5: G 3.89, S 4, R 3.56, C 3.33, I 3.02, N 3.86, A 3.26, P 3.3, M 3.04, Q 3.47, H 3.8, F 2.72, D 4.27, V 3.55, K 3.12, Y 3.01, T 3.43, E 4.26, L 2.53
V2: H 2.35, L 2.74, K 2.65, Q 2.87, I 2.22, D 3.76, P 3.15, M 2.71, N 3.11, G 3.3, S 2.62, F 2.71, E 3.78, A 2.8, T 2.71, W 1.98, Y 2.42, R 3.05, C 2.48
H4: Q 1.78, A 1.47, V 2.08, N 2.11, R 1.97, W 1.6, P 2.17, S 2.64, F 1.72, G 1.5, L 1.7, I 1.89, K 2.18, C 2.49, E 2.63, M 2.72, Y 1.44, T 2.38, D 2.49
T3: Q 1.93, Y 1.91, C 1.8, D 1.66, S 1.64, W 1.4, R 1.95, V 2.78, I 2.01, A 2.5, P 3.11, F 1.69, H 1.93, N 1.99, K 1.91, E 2.38, G 1.19, M 2.05, L 1.59
M6: H 2.34, L 1.93, N 2.92, Q 2.74, A 2.75, I 2.12, G 2.16, K 3.28, S 2.4, R 2.63, F 2.02, E 3.24, C 2.86, P 2.44, D 3.03
H1: T 2.91, L 2.14, Q 2.68, S 2.61, V 2.51, A 2.68, K 2.46, G 3.08, C 2.04, F 1.89, E 2.78, D 2.68, M 2.5, R 2.31, N 2.76, Y 3.14, I 1.83, P 3.08, W 1.78

Variants of: B2
Assay: as above
Conditions: c terminus: a fixed tail appended

Protein stability index: each site, then its substitutions
W12: S 2.38, V 1.67
A3: E 3.61
L6: Q 2.86, T 2.31
R19: N 3.94

Variants of: B3
Assay: as above
Conditions: c terminus: a fixed tail appended

Protein stability index: each site, then its substitutions
L17: R 4.75, W 3.23, T 1.6, F 2.63, C 3.92, D 3.82, M 2.14
F4: C 3.14, L 3.35, R 1.62, W 2.8, D 1.31, S 1.59, I 3.47, Y 2.38, P 2.47, T 3.43, V 4.44, M 2.91, A 3.21
A22: H 4.48, K 1.96, T 3.45, S 2.32, I 3.44, L 3.17, F 1.59, Y 2.13
Y12: T 2.73, F 2.15, H 2.51, M 3.19, R 2.3, I 2.34, L 1.19, A 3.04, K 1.86, C 4.09, G 2.04
G24: L 2.97, R 2.65, F 2.43, W 2.13, T 2.27, A 1.65, P 2.47, M 2.92, C 1.89, Q 3.31, Y 2.12, K 3.01, N 1.07
Y11: M 3.5, W 1.74, S 3.12, L 1.34, F 3.33, A 1.28, R 3.03, C 2.45
F7: Y 5.14, T 2.28, D 1.8, S 1.04, W 3.54, L 3.51, H 1.62, N 3.1, I 2.33
Q2: M 3.47, Y 1.83, R 1.21, E 3.02, L 3.88, W 1.21, F 3.7, S 2.29, I 2.65, A 2.37
Q13: H 2.75, S 3.55, T 1.8, M 4.22, F 2.43, C 3.12, W 4.1, Y 1.97, N 2.81, G 2.27, L 2.38
V5: I 3.51, K 2.62, H 2.39, C 2.31, M 2.91, F 2.25, N 4.88, R 3.82, Q 1.89
Q9: C 2.9, A 2.91, L 2.74, P 1.25, N 2.7, M 1.77, W 2.71, F 2.13
S14: N 4.03, V 3.65, M 2.02, Q 2.52, E 2.56, T 3.4, R 1.84, I 3.42, H 2.92, G 3.08
Q6: E 1.84, L 3.11, G 3.6, F 1.8, D 3.22, N 2.48, R 2.24, W 3.03, V 2.92
R21: N 3.14, F 1.58, K 2.17, Y 2.7, D 2.28, Q 2.76
C16: R 2.24, Q 2.49, T 2.12, N 1.04, K 1.72
Y10: A 1.83, Q 2.35, H 2.17, G 3.01, S 2.58, E 1.79, I 4.51, C 2.56
R19: P 2.84, Y 2.66, M 1.97, A 2.88, I 1.84, K 3.35, S 3.54, W 3.14, L 1.22, C 2.93, H 3.88, E 2.1, T 1.74, V 1.95, G 1.88
Y1: Q 2.83, K 2.19, M 2.68, I 2.24, E 1.49, S 1.86, F 3.06
L23: P 2.6, G 3.3, F 1.77, C 3.82, S 2.6, Y 2.61
Y18: I 2.96, R 1.85, T 1.9, P 2.45, L 4.02, K 1.86, E 2.07, A 1.84, N 1.79
G15: S 2.95, I 2.66, W 1.9, L 3.31
S3: D 3.12, Y 4.62, T 2.88, V 3.32, N 2.12, P 3.24, A 1.05, L 3.8, M 3.7, R 2.35, H 2.33
L20: M 2.47, R 1.47, D 2.38, E 2.34, A 1.85, V 3.1, Q 4.03, K 3.64, W 2.31
L8: C 2.17, A 3.44, D 1.91, T 1.88, G 3.09, N 2.08, W 1.62, H 1.73, Y 2.79, E 1.66, Q 2.13, S 1.28
